# In PMC6477152 (2019):
# B1: FIP200ΔN1115:Luciferase [human] / GST:SINTBADaa5-85 [human] (parent complex)
# chain 1: ENYQVGLAELRTLMTIEKDQCISELISRHEEESNILKAELNKVTSLHNQAFEIEKNLKEQIIELQSKLDSELSALERQKDEKITQQEEKYEAIIQNLEKDRQKLVSSQEQDREQLIQKLNCEKDEAIQTALKEFKLEREVVEKELLEKVKHLENQIAKSPAIDSTRGDSSSLVAELQEKLQEEKAKFLEQLEEQEKRKNEEMQNVRTSLIAEQQTNFNTVLTREKMRKENIINDLSDKLKSTMQQQERDKDLIESLSEDRARLLEEKKKLEEEVSKLRSSSFVPSPYVATAPELYGACAPELPGESDRSAVETADEGRVDSAMETSMMSVQENIHMLSEEKQRIMLLERTLQLKEEENKRLNQRLMSQSMSSVSSRHSEKIAIRDFQVGDLVLIILDERHDNYVLFTVSPTLYFLHSESLPALDLKPGEGASGASRRPWVLGKVMEKEYCQAKKAQNRFKVPLGTKFYRVKAVSWNKKV
# chain 2: FEDDISILTQEALGPSEVWLDSPGDPSLGGDMCSASHFALITAYGDIKERLGGLERENATLRRRLKVYEIKYPLISDFGEE
# Variants of: B1
# Experiment: LUMIER assay; HEK293ET cell lysates; bacterially expressed GST bait; read off a plot
row,Variant,response [fold binding]
1,chain 1 ENYQVGLAELRTLMTIEKDQCISELISRHEEESNILKAELNKVTSLHNQAFEIEKNLKEQIIELQSKLDSELSALERQKDEKITQQEEKYEAIIQNLEKDRQKLVSSQEQDREQLIQKLNCEKDEAIQTALKEFKLEREVVEKELLEKVKHLENQIAKSPAIDSTRGDSSSLVAELQEKLQEEKAKFLEQLEEQEKRKNEEMQNVRTSLIAEQQTNFNTVLTREKMRKENIINDLSDKLKSTMQQQERDKDLIESLSEDRARLLEEKKKLEEEVSKLRSSSFVPSPYVATAPELYGACAPELPGESDRSAVETADEGRVDSAMETSMMSVQENIHMLSEEKQRIMLLERTLALKEEENKRLNQRLMSQSMSSVSSRHSEKIAIRDFQVGDLVLIILDERHDNYVLFTVSPTLYFLHSESLPALDLKPGEGASGASRRPWVLGKVMEKEYCQAKKAQNRFKVPLGTKFYRVKAVSWNKKV [chain 1 Q352A],~210
2,chain 1 ENYQVGLAELRTLMTIEKDQCISELISRHEEESNILKAELNKVTSLHNQAFEIEKNLKEQIIELQSKLDSELSALERQKDEKITQQEEKYEAIIQNLEKDRQKLVSSQEQDREQLIQKLNCEKDEAIQTALKEFKLEREVVEKELLEKVKHLENQIAKSPAIDSTRGDSSSLVAELQEKLQEEKAKFLEQLEEQEKRKNEEMQNVRTSLIAEQQTNFNTVLTREKMRKENIINDLSDKLKSTMQQQERDKDLIESLSEDRARLLEEKKKLEEEVSKLRSSSFVPSPYVATAPELYGACAPELPGESDRSAVETADEGRVDSAMETSMMSVQENIHMLSEEKQRIMLLARTLQLKEEENKRLNQRLMSQSMSSVSSRHSEKIAIRDFQVGDLVLIILDERHDNYVLFTVSPTLYFLHSESLPALDLKPGEGASGASRRPWVLGKVMEKEYCQAKKAQNRFKVPLGTKFYRVKAVSWNKKV [chain 1 E348A],~200
3,chain 1 ENYQVGLAELRTLMTIEKDQCISELISRHEEESNILKAELNKVTSLHNQAFEIEKNLKEQIIELQSKLDSELSALERQKDEKITQQEEKYEAIIQNLEKDRQKLVSSQEQDREQLIQKLNCEKDEAIQTALKEFKLEREVVEKELLEKVKHLENQIAKSPAIDSTRGDSSSLVAELQEKLQEEKAKFLEQLEEQEKRKNEEMQNVRTSLIAEQQTNFNTVLTREKMRKENIINDLSDKLKSTMQQQERDKDLIESLSEDRARLLEEKKKLEEEVSKLRSSSFVPSPYVATAPELYGACAPELPGESDRSAVETADEGRVDSAMETSMMSVQENIHMLSEEKQRIMLLEATLQLKEEENKRLNQRLMSQSMSSVSSRHSEKIAIRDFQVGDLVLIILDERHDNYVLFTVSPTLYFLHSESLPALDLKPGEGASGASRRPWVLGKVMEKEYCQAKKAQNRFKVPLGTKFYRVKAVSWNKKV [chain 1 R349A],~170
4,chain 1 ENYQVGLAELRTLMTIEKDQCISELISRHEEESNILKAELNKVTSLHNQAFEIEKNLKEQIIELQSKLDSELSALERQKDEKITQQEEKYEAIIQNLEKDRQKLVSSQEQDREQLIQKLNCEKDEAIQTALKEFKLEREVVEKELLEKVKHLENQIAKSPAIDSTRGDSSSLVAELQEKLQEEKAKFLEQLEEQEKRKNEEMQNVRTSLIAEQQTNFNTVLTREKMRKENIINDLSDKLKSTMQQQERDKDLIESLSEDRARLLEEKKKLEEEVSKLRSSSFVPSPYVATAPELYGACAPELPGESDRSAVETADEGRVDSAMETSMMSVQENIHMLSEEKQRIMLLERTLQLKEEENKRLNQRLMSQSMSSVSSRHSEKIAIRDFQVGDLVLIILDERHDNYVLFTVSPTLYFLHSESLPALDLKPGEGASGASRRPWVLGKVMEKEYCQSKKAQNRFKVPLGTKFYRVKAVSWNKKV [chain 1 A452S],~59
5,chain 1 ENYQVGLAELRTLMTIEKDQCISELISRHEEESNILKAELNKVTSLHNQAFEIEKNLKEQIIELQSKLDSELSALERQKDEKITQQEEKYEAIIQNLEKDRQKLVSSQEQDREQLIQKLNCEKDEAIQTALKEFKLEREVVEKELLEKVKHLENQIAKSPAIDSTRGDSSSLVAELQEKLQEEKAKFLEQLEEQEKRKNEEMQNVRTSLIAEQQTNFNTVLTREKMRKENIINDLSDKLKSTMQQQERDKDLIESLSEDRARLLEEKKKLEEEVSKLRSSSFVPSPYVATAPELYGACAPELPGESDRSAVETADEGRVDSAMETSMMSVQENIHMLSEEKQRIMLLERTAQLKEEENKRLNQRLMSQSMSSVSSRHSEKIAIRDFQVGDLVLIILDERHDNYVLFTVSPTLYFLHSESLPALDLKPGEGASGASRRPWVLGKVMEKEYCQAKKAQNRFKVPLGTKFYRVKAVSWNKKV [chain 1 L351A],~110
6,chain 1 ENYQVGLAELRTLMTIEKDQCISELISRHEEESNILKAELNKVTSLHNQAFEIEKNLKEQIIELQSKLDSELSALERQKDEKITQQEEKYEAIIQNLEKDRQKLVSSQEQDREQLIQKLNCEKDEAIQTALKEFKLEREVVEKELLEKVKHLENQIAKSPAIDSTRGDSSSLVAELQEKLQEEKAKFLEQLEEQEKRKNEEMQNVRTSLIAEQQTNFNTVLTREKMRKENIINDLSDKLKSTMQQQERDKDLIESLSEDRARLLEEKKKLEEEVSKLRSSSFVPSPYVATAPELYGACAPELPGESDRSAVETADEGRVDSAMETSMMSVQENIHMLSEEKQRIMLLERTLQAKEEENKRLNQRLMSQSMSSVSSRHSEKIAIRDFQVGDLVLIILDERHDNYVLFTVSPTLYFLHSESLPALDLKPGEGASGASRRPWVLGKVMEKEYCQAKKAQNRFKVPLGTKFYRVKAVSWNKKV [chain 1 L353A],~170
7,chain 1 ENYQVGLAELRTLMTIEKDQCISELISRHEEESNILKAELNKVTSLHNQAFEIEKNLKEQIIELQSKLDSELSALERQKDEKITQQEEKYEAIIQNLEKDRQKLVSSQEQDREQLIQKLNCEKDEAIQTALKEFKLEREVVEKELLEKVKHLENQIAKSPAIDSTRGDSSSLVAELQEKLQEEKAKFLEQLEEQEKRKNEEMQNVRTSLIAEQQTNFNTVLTREKMRKENIINDLSDKLKSTMQQQERDKDLIESLSEDRARLLEEKKKLEEEVSKLRSSSFVPSPYVATAPELYGACAPELPGESDRSAVETADEGRVDSAMETSMMSVQENIHMLSEEKQRIMLAERTLQLKEEENKRLNQRLMSQSMSSVSSRHSEKIAIRDFQVGDLVLIILDERHDNYVLFTVSPTLYFLHSESLPALDLKPGEGASGASRRPWVLGKVMEKEYCQAKKAQNRFKVPLGTKFYRVKAVSWNKKV [chain 1 L347A],~99
8,chain 1 ENYQVGLAELRTLMTIEKDQCISELISRHEEESNILKAELNKVTSLHNQAFEIEKNLKEQIIELQSKLDSELSALERQKDEKITQQEEKYEAIIQNLEKDRQKLVSSQEQDREQLIQKLNCEKDEAIQTALKEFKLEREVVEKELLEKVKHLENQIAKSPAIDSTRGDSSSLVAELQEKLQEEKAKFLEQLEEQEKRKNEEMQNVRTSLIAEQQTNFNTVLTREKMRKENIINDLSDKLKSTMQQQERDKDLIESLSEDRARLLEEKKKLEEEVSKLRSSSFVPSPYVATAPELYGACAPELPGESDRSAVETADEGRVDSAMETSMMSVQENIHMLSEEKQRIMLLERALQLKEEENKRLNQRLMSQSMSSVSSRHSEKIAIRDFQVGDLVLIILDERHDNYVLFTVSPTLYFLHSESLPALDLKPGEGASGASRRPWVLGKVMEKEYCQAKKAQNRFKVPLGTKFYRVKAVSWNKKV [chain 1 T350A],~180

# Variants of: B1
# Experiment: LUMIER assay; HEK293ET cell lysates; read off a plot
row,Variant,response [fold binding]
1,chain 1 ENYQVGLAELRTLMTIEKDQCISELISRHEEESNILKAELNKVTSLHNQAFEIEKNLKEQIIELQSKLDSELSALERQKDEKITQQEEKYEAIIQNLEKDRQKLVSSQEQDREQLIQKLNCEKDEAIQTALKEFKLEREVVEKELLEKVKHLENQIAKSPAIDSTRGDSSSLVAELQEKLQEEKAKFLEQLEEQEKRKNEEMQNVRTSLIAEQQTNFNTVLTREKMRKENIINDLSDKLKSTMQQQERDKDLIESLSEDRARLLEEKKKLEEEVSKLRSSSFVPSPYVATAPELYGACAPELPGESDRSAVETADEGRVDSAMETSMMSVQENIHMLSEEKQRIMLLERTLQLKEEENKRLNQRLMSQSMSSVSSRHSEKIAIRDFQVGDLVLIILDERHDNYVLFTVSPTLYFLHSESLPALDLKPGEGASGASRRPWVLGKVMEKEYCQAKKAQNRFKSPLGTKFYRVKAVSWNKKV [chain 1 V461S],~6.4
2,chain 1 ENYQVGLAELRTLMTIEKDQCISELISRHEEESNILKAELNKVTSLHNQAFEIEKNLKEQIIELQSKLDSELSALERQKDEKITQQEEKYEAIIQNLEKDRQKLVSSQEQDREQLIQKLNCEKDEAIQTALKEFKLEREVVEKELLEKVKHLENQIAKSPAIDSTRGDSSSLVAELQEKLQEEKAKFLEQLEEQEKRKNEEMQNVRTSLIAEQQTNFNTVLTREKMRKENIINDLSDKLKSTMQQQERDKDLIESLSEDRARLLEEKKKLEEEVSKLRSSSFVPSPYVATAPELYGACAPELPGESDRSAVETADEGRVDSAMETSMMSVQENIHMLSEEKQRIMLLERTLQLKEEENKRLNQRLMSQSMSSVSSRHSEKIAIRDFQVGDLVLIILDERHDNYVLFTVSPTLYFLHSESLPALDLKPGEGASGASRRPWVLGKVMEKEYCQAKKAQNRSKVPLGTKFYRVKAVSWNKKV [chain 1 F459S],~6.2
3,chain 1 ENYQVGLAELRTLMTIEKDQCISELISRHEEESNILKAELNKVTSLHNQAFEIEKNLKEQIIELQSKLDSELSALERQKDEKITQQEEKYEAIIQNLEKDRQKLVSSQEQDREQLIQKLNCEKDEAIQTALKEFKLEREVVEKELLEKVKHLENQIAKSPAIDSTRGDSSSLVAELQEKLQEEKAKFLEQLEEQEKRKNEEMQNVRTSLIAEQQTNFNTVLTREKMRKENIINDLSDKLKSTMQQQERDKDLIESLSEDRARLLEEKKKLEEEVSKLRSSSFVPSPYVATAPELYGACAPELPGESDRSAVETADEGRVDSAMETSMMSVQENIHMLSEEKQRIMLLERTLQLKEEENKRLNQRLMSQSMSSVSSRHSEKIAIRDFQVGDLVLIILDERHDNYVLFTVSPTLYFLHSESLPALDLKPGEGASGASRRPWVLGKVMEKEYCQSKKAQNRFKVPLGTKFYRVKAVSWNKKV [chain 1 A452S],~280
4,chain 1 ENYQVGLAELRTLMTIEKDQCISELISRHEEESNILKAELNKVTSLHNQAFEIEKNLKEQIIELQSKLDSELSALERQKDEKITQQEEKYEAIIQNLEKDRQKLVSSQEQDREQLIQKLNCEKDEAIQTALKEFKLEREVVEKELLEKVKHLENQIAKSPAIDSTRGDSSSLVAELQEKLQEEKAKFLEQLEEQEKRKNEEMQNVRTSLIAEQQTNFNTVLTREKMRKENIINDLSDKLKSTMQQQERDKDLIESLSEDRARLLEEKKKLEEEVSKLRSSSFVPSPYVATAPELYGACAPELPGESDRSAVETADEGRVDSAMETSMMSVQENIHMLSEEKQRIMLLERTLQLKEEENKRLNQRLMSQSMSSVSSRHSEKIAIRDFQVGDLVLIILDERHDNYVLFTVSPTLYFLHSESLPALDLKPGEGASGASRRPWVLGKVMEKEYCQAKKAQSRFKVPLGTKFYRVKAVSWNKKV [chain 1 N457S],~7.8
